Assay results taken from patent US20120142593A1 (Bayer, published 2012).

Experiments:
[1] = target: human von Willebrand Factor (human) (UniProt P04275); experiment: Biacore SPR, human vWF immobilized on a CM-5 chip by amine coupling, full-length recombinant FVIII passed over as analyte
recombinant mouse FcRn = target: T1, recombinant mouse FcRn (mouse, UniProt Q61559 22-297; P01887 21-119, limits assumed); experiment: Biacore, mFcRn immobilized on CM-5 chip
T1 construct: also called mFcRn
T1 sequence (looked up) 1: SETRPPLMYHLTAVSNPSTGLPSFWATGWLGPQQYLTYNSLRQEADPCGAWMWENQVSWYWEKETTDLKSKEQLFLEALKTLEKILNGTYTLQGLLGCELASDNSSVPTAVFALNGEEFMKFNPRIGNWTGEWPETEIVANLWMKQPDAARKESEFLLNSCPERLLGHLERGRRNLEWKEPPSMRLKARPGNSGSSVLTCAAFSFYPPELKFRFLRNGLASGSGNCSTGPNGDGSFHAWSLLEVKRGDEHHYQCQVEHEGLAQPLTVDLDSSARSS
T1 sequence (looked up) 2: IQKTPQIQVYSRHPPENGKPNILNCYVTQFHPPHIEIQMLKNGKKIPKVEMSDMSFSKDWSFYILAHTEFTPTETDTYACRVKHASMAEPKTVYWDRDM
Text: The following example describes functional studies performed using the Biacore™ system to determine whether an FcRn binding epitope retains it ability to bind to FnRn when incorporated in a Factor VIII fusion heterodimer. For use in the Biacore™ test, recombinant mouse FcRn (mFcRn) protein was expressed in CHO-K1 cells and purified by mouse IgG-affinity chromatography. Mouse FcRn was immobilized onto a CM-5 chip by amine coupling. Two Factor VIII heterodimers (BDDFc+hinge and BDDFc−hinge), BDD (the Factor VIII protein from which BDDFc+hinge and BDDFc−hinge are derived), and full-length recombinant Factor VIII were passed over the surface of the chip at various concentrations (e.g., 1.5, 3, 6, 12, 25, and 50 nM). Binding of BDDFc±hinge Factor VIII fusion heterodimers to immobilized mFcRn was detected (FIG. 13).

[2] = target: T2, human von Willebrand Factor (human, UniProt P04275 764-2813); experiment: Biacore, human vWF immobilized on CM-5 chip
T2 construct: also called vWF; vWf
Procedure: (§1) Human vWF was immobilized onto a CM-5 chip by amine coupling. Two Factor VIII heterodimers (BDDFc+hinge and BDDFc−hinge), BDD (the Factor VIII protein from which BDDFc+hinge and BDDFc−hinge are derived), and full-length recombinant Factor VIII were passed over the surface of the chip at various concentrations (e.g., 1, 2, 4, 8, 16, and 25 nM).

[3] = target: T2, human von Willebrand Factor; experiment: Biacore SPR, human vWF immobilized on a CM-5 chip by amine coupling, BDD passed over as analyte
Procedure: as §1

| Molecule | Kd [1] [nM] | Kd (recombinant mouse FcRn) [nM] | Kd [2] [nM] | Kd [3] [nM] |
| --- | --- | --- | --- | --- |
| full-length recombinant Factor VIII (from UniProt P00451 20-2351) | 0.657 | – | – | – |
| BDDFc-hinge Factor VIII fusion heterodimer (Fc fusion, No signal peptide limits are stated on this entry; It is processed into a heavy chain-Fc chimera and a light chain; also called BDDmFc-hinge expression product; FVIII-Fc) ATRRYYLGAVELSWDYMQSDLGELPVDARFPPRVPKSFPFNTSVVYKKTLFVEFTDHLFNIAKPRPPWMGLLGPTIQAEVYDTVVITLKNMASHPVSLHAVGVSYWKASEGAEYDDQTSQREKEDDKVFPGGSHTYVWQVLKENGPMASDPLCLTYSYLSHVDLVKDLNSGLIGALLVCREGSLAKEKTQTLHKFILLFAVFDEGKSWHSETKNSLMQDRDAASARAWPKMHTVNGYVNRSLPGLIGCHRKSVYWHVIGMGTTPEVHSIFLEGHTFLVRNHRQASLEISPITFLTAQTLLMDLGQFLLFCHISSHQHDGMEAYVKVDSCPEEPQLRMKNNEEAEDYDDDLTDSEMDVVRFDDDNSPSFIQIRSVAKKHPKTWVHYIAAEEEDWDYAPLVLAPDDRSYKSQYLNNGPQRIGRKYKKVRFMAYTDETFKTREAIQHESGILGPLLYGEVGDTLLIIFKNQASRPYNIYPHGITDVRPLYSRRLPKGVKHLKDFPILPGEIFKYKWTVTVEDGPTKSDPRCLTRYYSSFVNMERDLASGLIGPLLICYKESVDQRGNQIMSDKRNVILFSVFDENRSWYLTENIQRFLPNPAGVQLEDPEFQASNIMHSINGYVFDSLQLSVCLHEVAYWYILSIGAQTDFLSVFFSGYTFKHKMVYEDTLTLFPFSGETVFMSMENPGLWILGCHNSDFRNRGMTALLKVSSCDKNTGDYYEDSYEDISAYLLSKNNAIEPRSFSQNVPEVSSVFIFPPKPKDVLTITLTPKVTCVVVDISKDDPEVQFSWFVDDVEVHTAQTQPREEQFNSTFRSVSELPIMHQDWLNGKEFKCRVNSAAFPAPIEKTISKTKGRPKAPQVYTIPPPKEQMAKDKVSLTCMITDFFPEDITVEWQWNGQPAENYKNTQPIMDTDGSYFVYSKLNVQKSNWEAGNTFTCSVLHEGLHNHHTEKSLSHSPGKSQNPPVLKRHQREITRTTLQSDQEEIDYDDTISVEMKKEDFDIYDEDENQSPRSFQKKTRHYFIAAVERLWDYGMSSSPHVLRNRAQSGSVPQFKKVVFQEFTDGSFTQPLYRGELNEHLGLLGPYIRAEVEDNIMVTFRNQASRPYSFYSSLISYEEDQRQGAEPRKNFVKPNETKTYFWKVQHHMAPTKDEFDCKAWAYFSDVDLEKDVHSGLIGPLLVCHTNTLNPAHGRQVTVQEFALFFTIFDETKSWYFTENMERNCRAPCNIQMEDPTFKENYRFHAINGYIMDTLPGLVMAQDQRIRWYLLSMGSNENIHSIHFSGHVFTVRKKEEYKMALYNLYPGVFETVEMLPSKAGIWRVECLIGEHLHAGMSTLFLVYSNKCQTPLGMASGHIRDFQITASGQYGQWAPKLARLHYSGSINAWSTKEPFSWIKVDLLAPMIIHGIKTQGARQKFSSLYISQFIIMYSLDGKKWQTYRGNSTGTLMVFFGNVDSSGIKHNIFNPPIIARYIRLHPTHYSIRSTLRMELMGCDLNSCSMPLGMESKAISDAQITASSYFTNMFATWSPSKARLHLQGRSNAWRPQVNNPKEWLQVDFQKTMKVTGVTTQGVKSLLTSMYVKEFLISSSQDGHQWTLFFQNGKVKVFQGNQDSFTPVVNSLDPPLLTRYLRIHPQSWVHQIALRMEVLGCEAQDLY | – | 3.75 | 0.908 | – |
| B-domain deleted Factor VIII (BDD) (other, The protein circulates as a heavy chain and light chain heterodimer; also called BDD-FVIII; BDD Factor VIII) ATRRYYLGAVELSWDYMQSDLGELPVDARFPPRVPKSFPFNTSVVYKKTLFVEFTVHLFNIAKPRPPWMGLLGPTIQAEVYDTVVITLKNMASHPVSLHAVGVSYWKASEGAEYDDQTSQREKEDDKVFPGGSHTYVWQVLKENGPMASDPLCLTYSYLSHVDLVKDLNSGLIGALLVCREGSLAKEKTQTLHKFILLFAVFDEGKSWHSETKNSLMQDRDAASARAWPKMHTVNGYVNRSLPGLIGCHRKSVYWHVIGMGTTPEVHSIFLEGHTFLVRNHRQASLEISPITFLTAQTLLMDLGQFLLFCHISSHQHDGMEAYVKVDSCPEEPQLRMKNNEEAEDYDDDLTDSEMDVVRFDDDNSPSFIQIRSVAKKHPKTWVHYIAAEEEDWDYAPLVLAPDDRSYKSQYLNNGPQRIGRKYKKVRFMAYTDETFKTREAIQHESGILGPLLYGEVGDTLLIIFKNQASRPYNIYPHGITDVRPLYSRRLPKGVKHLKDFPILPGEIFKYKWTVTVEDGPTKSDPRCLTRYYSSFVNMERDLASGLIGPLLICYKESVDQRGNQIMSDKRNVILFSVFDENRSWYLTENIQRFLPNPAGVQLEDPEFQASNIMHSINGYVFDSLQLSVCLHEVAYWYILSIGAQTDFLSVFFSGYTFKHKMVYEDTLTLFPFSGETVFMSMENPGLWILGCHNSDFRNRGMTALLKVSSCDKNTGDYYEDSYEDISAYLLSKNNAIEPRSFSQNPPVLKRHQREITRTTLQSDQEEIDYDDTISVEMKKEDFDIYDEDENQSPRSFQKKTRHYFIAAVERLWDYGMSSSPHVLRNRAQSGSVPQFKKVVFQEFTDGSFTQPLYRGELNEHLGLLGPYIRAEVEDNIMVTFRNQASRPYSFYSSLISYEEDQRQGAEPRKNFVKPNETKTYFWKVQHHMAPTKDEFDCKAWAYFSDVDLEKDVHSGLIGPLLVCHTNTLNPAHGRQVTVQEFALFFTIFDETKSWYFTENMERNCRAPCNIQMEDPTFKENYRFHAINGYIMDTLPGLVMAQDQRIRWYLLSMGSNENIHSIHFSGHVFTVRKKEEYKMALYNLYPGVFETVEMLPSKAGIWRVECLIGEHLHAGMSTLFLVYSNKCQTPLGMASGHIRDFQITASGQYGQWAPKLARLHYSGSINAWSTKEPFSWIKVDLLAPMIIHGIKTQGARQKFSSLYISQFIIMYSLDGKKWQTYRGNSTGTLMVFFGNVDSSGIKHNIFNPPIIARYIRLHPTHYSIRSTLRMELMGCDLNSCSMPLGMESKAISDAQITASSYFTNMFATWSPSKARLHLQGRSNAWRPQVNNPKEWLQVDFQKTMKVTGVTTQGVKSLLTSMYVKEFLISSSQDGHQWTLFFQNGKVKVFQGNQDSFTPVVNSLDPPLLTRYLRIHPQSWVHQIALRMEVLGCEAQDLY | – | – | – | 0.53 |
| BDDFc+hinge Factor VIII fusion heterodimer (Fc fusion, also called BDDmFc+hinge expression product) ATRRYYLGAVELSWDYMQSDLGELPVDARFPPRVPKSFPFNTSVVYKKTLFVEFTDHLFNIAKPRPPWMGLLGPTIQAEVYDTVVITLKNMASHPVSLHAVGVSYWKASEGAEYDDQTSQREKEDDKVFPGGSHTYVWQVLKENGPMASDPLCLTYSYLSHVDLVKDLNSGLIGALLVCREGSLAKEKTQTLHKFILLFAVFDEGKSWHSETKNSLMQDRDAASARAWPKMHTVNGYVNRSLPGLIGCHRKSVYWHVIGMGTTPEVHSIFLEGHTFLVRNHRQASLEISPITFLTAQTLLMDLGQFLLFCHISSHQHDGMEAYVKVDSCPEEPQLRMKNNEEAEDYDDDLTDSEMDVVRFDDDNSPSFIQIRSVAKKHPKTWVHYIAAEEEDWDYAPLVLAPDDRSYKSQYLNNGPQRIGRKYKKVRFMAYTDETFKTREAIQHESGILGPLLYGEVGDTLLIIFKNQASRPYNIYPHGITDVRPLYSRRLPKGVKHLKDFPILPGEIFKYKWTVTVEDGPTKSDPRCLTRYYSSFVNMERDLASGLIGPLLICYKESVDQRGNQIMSDKRNVILFSVFDENRSWYLTENIQRFLPNPAGVQLEDPEFQASNIMHSINGYVFDSLQLSVCLHEVAYWYILSIGAQTDFLSVFFSGYTFKHKMVYEDTLTLFPFSGETVFMSMENPGLWILGCHNSDFRNRGMTALLKVSSCDKNTGDYYEDSYEDISAYLLSKNNAIEPRSFSQNVPRDCGCKPCICTVPEVSSVFIFPPKPKDVLTITLTPKVTCVVVDISKDDPEVQFSWFVDDVEVHTAQTQPREEQFNSTFRSVSELPIMHQDWLNGKEFKCRVNSAAFPAPIEKTISKTKGRPKAPQVYTIPPPKEQMAKDKVSLTCMITDFFPEDITVEWQWNGQPAENYKNTQPIMDTDGSYFVYSKLNVQKSNWEAGNTFTCSVLHEGLHNHHTEKSLSHSPGKSQNPPVLKRHQREITRTTLQSDQEEIDYDDTISVEMKKEDFDIYDEDENQSPRSFQKKTRHYFIAAVERLWDYGMSSSPHVLRNRAQSGSVPQFKKVVFQEFTDGSFTQPLYRGELNEHLGLLGPYIRAEVEDNIMVTFRNQASRPYSFYSSLISYEEDQRQGAEPRKNFVKPNETKTYFWKVQHHMAPTKDEFDCKAWAYFSDVDLEKDVHSGLIGPLLVCHTNTLNPAHGRQVTVQEFALFFTIFDETKSWYFTENMERNCRAPCNIQMEDPTFKENYRFHAINGYIMDTLPGLVMAQDQRIRWYLLSMGSNENIHSIHFSGHVFTVRKKEEYKMALYNLYPGVFETVEMLPSKAGIWRVECLIGEHLHAGMSTLFLVYSNKCQTPLGMASGHIRDFQITASGQYGQWAPKLARLHYSGSINAWSTKEPFSWIKVDLLAPMIIHGIKTQGARQKFSSLYISQFIIMYSLDGKKWQTYRGNSTGTLMVFFGNVDSSGIKHNIFNPPIIARYIRLHPTHYSIRSTLRMELMGCDLNSCSMPLGMESKAISDAQITASSYFTNMFATWSPSKARLHLQGRSNAWRPQVNNPKEWLQVDFQKTMKVTGVTTQGVKSLLTSMYVKEFLISSSQDGHQWTLFFQNGKVKVFQGNQDSFTPVVNSLDPPLLTRYLRIHPQSWVHQIALRMEVLGCEAQDLY | – | 2.48 | 0.465 | – |
